Residue numbers refer to the chain shown, from its start. Names may count otherwise.
T1: RAD54L WT (human, UniProt Q92698 1-747)
T1 sequence (looked up): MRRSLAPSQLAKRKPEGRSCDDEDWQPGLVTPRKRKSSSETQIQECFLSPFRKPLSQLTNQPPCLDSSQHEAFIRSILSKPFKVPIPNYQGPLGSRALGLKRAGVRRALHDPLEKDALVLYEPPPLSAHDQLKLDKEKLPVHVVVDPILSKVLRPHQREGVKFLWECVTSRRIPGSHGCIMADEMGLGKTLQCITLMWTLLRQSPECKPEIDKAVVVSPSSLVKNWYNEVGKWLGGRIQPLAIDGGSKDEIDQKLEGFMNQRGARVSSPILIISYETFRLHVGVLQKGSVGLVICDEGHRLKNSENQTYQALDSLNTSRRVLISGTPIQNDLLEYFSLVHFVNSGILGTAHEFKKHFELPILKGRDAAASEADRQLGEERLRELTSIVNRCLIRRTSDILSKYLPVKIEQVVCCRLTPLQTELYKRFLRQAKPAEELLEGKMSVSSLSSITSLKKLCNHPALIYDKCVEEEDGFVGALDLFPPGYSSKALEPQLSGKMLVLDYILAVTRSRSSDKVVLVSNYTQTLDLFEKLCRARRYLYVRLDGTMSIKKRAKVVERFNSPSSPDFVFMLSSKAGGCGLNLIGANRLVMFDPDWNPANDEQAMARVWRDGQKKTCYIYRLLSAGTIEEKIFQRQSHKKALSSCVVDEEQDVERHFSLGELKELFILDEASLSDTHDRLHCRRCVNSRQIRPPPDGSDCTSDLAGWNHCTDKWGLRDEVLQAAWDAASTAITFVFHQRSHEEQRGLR

T2: XRCC3 WT (human, UniProt O43542 1-346)
T2 sequence (looked up): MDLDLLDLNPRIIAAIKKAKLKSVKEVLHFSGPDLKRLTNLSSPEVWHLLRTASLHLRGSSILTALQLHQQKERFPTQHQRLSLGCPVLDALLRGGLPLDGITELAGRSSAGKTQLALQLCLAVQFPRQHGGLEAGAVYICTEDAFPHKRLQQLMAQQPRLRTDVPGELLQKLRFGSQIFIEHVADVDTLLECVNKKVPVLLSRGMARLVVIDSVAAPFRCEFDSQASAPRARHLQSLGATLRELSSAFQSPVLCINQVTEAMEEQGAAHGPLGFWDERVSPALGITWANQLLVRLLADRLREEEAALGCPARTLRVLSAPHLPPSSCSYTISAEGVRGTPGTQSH

B1: RAD51 WT (natural protein, human, UniProt Q06609 1-339, looked up)
chain: MAMQMQLEANADTSVEEESFGPQPISRLEQCGINANDVKKLEEAGFHTVEAVAYAPKKELINIKGISEAKADKILAEAAKLVPMGFTTATEFHQRRSEIIQITTGSKELDKLLQGGIETGSITEMFGEFRTGKTQICHTLAVTCQLPIDRGGGEGKAMYIDTEGTFRPERLLAVAERYGLSGSDVLDNVAYARAFNTDHQTQLLYQASAMMVESRYALLIVDSATALYRTDYSGRGELSARQMHLARFLRMLLRLADEFGVAVVITNQVVAQVDGAAMFAADPKKPIGGNIIAHASTTRLYLRKGRGETRICKIYDSPCLPEAEAMFAINADGVGDAKD
B2: RAD51 A55V (natural protein, human, UniProt Q06609 1-339, looked up)
chain: B1 chain with A55V
B3: RAD51 A79D (natural protein, human, UniProt Q06609 1-339, looked up)
chain: B1 chain with A79D

Tests used:
Test in all cases: two-hybrid
RAD51 A55V = target: B2
RAD51 A79D = target: B3
RAD54L WT = target: T1, RAD54L WT
XRCC3 WT = target: T2, XRCC3 WT
RAD51 WT = target: B1

Y2H % of WT (RAD51 A55V) | Y2H % of WT (RAD51 A79D) | Y2H % of WT (RAD54L WT) | Y2H % of WT (XRCC3 WT) | Y2H % of WT (RAD51 WT) | Binder
90.8 % of WT | 109 % of WT | – | – | – | B1
– | – | 112 % of WT | 97.8 % of WT | 135 % of WT | B2
– | – | 90.6 % of WT | 21.5 % of WT | 95.1 % of WT | B3

— paper PMC5834346 (Familial cancer, 2018)
